Results published in patent publication US20230399394A1 (SUNSHINE GUOJIAN PHARMACEUTICAL SHANGHAI, published 2023).
Residue numbers refer to the chain shown, from its start. Values belong to the binder of their own block, whether it stands above or below them.

Key:
[1] = target: T1, IL-33 mutant protein D68A (human, UniProt O95760 112-270); assay: ELISA as Example 9; row D68A
T1 construct: Prokaryotic expression
T1 chain: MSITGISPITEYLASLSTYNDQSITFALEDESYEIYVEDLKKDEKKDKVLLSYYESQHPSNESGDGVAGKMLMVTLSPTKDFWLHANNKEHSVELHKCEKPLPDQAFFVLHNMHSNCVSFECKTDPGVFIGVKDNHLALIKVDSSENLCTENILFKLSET
Protocol: (§1) SA protein was diluted to 2 μg/mL to coat ELISA plate at 100 μL/well overnight at 4° C. The plate was washed with PBST (PBS containing 0.05% Tween20) for 3 times, and blocked with 2% BSA prepared in PBS at 200 μL/well, at room temperature for 2 h. After the plate was washed twice with PBST, IL-33-his-biotin protein was diluted to 1 μg/mL with 1% BSA prepared in PBST, and was added to ELISA plate at 100 μL/well. The plate was incubated at room temperature for 1 h, and each monoclonal antibody was diluted with 1% BSA prepared in PBST in a 3-fold gradient. The highest concentration of antibody was 10 μg/mL, and the antibody was diluted for 12 gradients. Each diluted monoclonal antibody was added to ELISA wells with 100 μL/well, and the plate was incubated at room temperature for 1 h. Each sample was added to duplicate wells in parallel. The plate was washed with PBST for 3 times, and HRP-anti human IgG Fc secondary antibody prepared with PBST was diluted at an appropriate ratio, and was added to ELISA wells at 100 μL/well. […] Each reaction solution was shaken uniformly and OD450 nm was read on a microplate reader. The data was analyzed and EC₅₀ was calculated.
(§2) Subsequently, according to the experimental method of Example 9, the affinity of the above mutant proteins to 874F7-Hu1 was determined, and IL-33 proteins (WT-1, WT-2, WT-3, and WT-4) without any mutation were set as controls.

[2] = target: T2, IL-33 mutant protein H58A (human, UniProt O95760 112-270); assay: ELISA as Example 9; row H58A
T2 construct: Prokaryotic expression
T2 chain: T1 chain with H58A, A68D
Protocol: as §1, §2

[3] = target: T3, IL-33 mutant protein N61A (human, UniProt O95760 112-270); assay: ELISA as Example 9; row N61A
T3 chain: T1 chain with N61A, A68D
Protocol: as §1, §2

[4] = target: T4, IL-33 protein without any mutation (WT) (human, UniProt O95760 112-270); assay: ELISA as Example 9; row WT-2
T4 construct: Control of the alanine scan (four runs WT-1 to WT-4); also called WT-1; WT-2
T4 sequence: T1 chain with A68D
Protocol: as §1, §2

[5] = target: T5, IL-33 mutant protein S60A (human, UniProt O95760 112-270); assay: ELISA as Example 9; row S60A against WT-1
T5 construct: Prokaryotic expression; also called 560A
T5 chain: T1 chain with S60A, A68D
Protocol: as §1, §2

[6] = target: T6, IL-33 mutant protein S63A (human, UniProt O95760 112-270); assay: ELISA as Example 9; row S63A against WT-3
T6 construct: Prokaryotic expression
T6 chain: T1 chain with S63A, A68D
Protocol: as §1, §2

Human IL-33-his = target: T7, Human IL-33-his (human, UniProt O95760 112-270, biotinylated with EZ-Link NHS-Biotin where used as IL-33-his-biotin); assay: competition ELISA, antibody mixed with IL-33-his-biotin, ST2 on plate; competitor ST2
T7 construct: Used plain (SPR, cell assays) and biotinylated (ELISA); also called IL-33-his-biotin
T7 sequence: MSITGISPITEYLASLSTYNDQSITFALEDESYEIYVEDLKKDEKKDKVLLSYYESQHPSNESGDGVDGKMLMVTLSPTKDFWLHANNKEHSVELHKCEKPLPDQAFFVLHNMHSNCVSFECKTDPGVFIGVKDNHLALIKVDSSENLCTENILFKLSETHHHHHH
Protocol: ST2 is the only receptor for IL-33 that has been discovered so far. As a cytokine, IL-33 exerts its physiological function depending on ST2 signaling pathway, and the blocking activity of antibody can reflect the neutralizing activity thereof. The specific method was as follows: the plate was coated with 2 μg/ml ST2 PBS solution at 4° C. overnight; the plate was washed with PBST for 3 times, then the plated was blocked with 5% skim milk powder at 37° C. for 2 hours; the plate was washed with PBST for 3 times for later use. 20 ng/ml IL-33-his-biotin antigen diluted by 1% BSA was mixed with antibodies to be tested diluted by gradient with 1% BSA at 1:1 equal volume and incubated at 37° C. for […]. The mixture was added to a pre-coated ST2 plate and incubated at 37° C. for 1 h. The plate was washed with PBST for 3 times. HRP-labeled streptavidin secondary antibody was added at 1:8000 and incubated at 37° C. for 0.5 hours. After washing the plate with PBST for 3 times, the plate was patted on the absorbent paper to remove residual droplets as far as possible. 100 μl TMB was added to each well, and the plate was placed at room temperature (20±5° C.) for 5 minutes away from light; 50 μl 2M H₂SO₄ terminating solution was added to each well to terminate the substrate reaction. OD values were read at 450 nm on the microplate reader.

- EC50 [1]: 0.22 nM
- EC50 [2]: 0.43 nM
- EC50 [3]: 0.15 nM
- EC50 [4]: 0.13 nM
- Affinity decline ratio [5]: 23.2 fold
- Affinity decline ratio [6]: 0.9 fold
B1: 874F7-Hu1 (antibody, human IgG4 S228P, kappa)
heavy: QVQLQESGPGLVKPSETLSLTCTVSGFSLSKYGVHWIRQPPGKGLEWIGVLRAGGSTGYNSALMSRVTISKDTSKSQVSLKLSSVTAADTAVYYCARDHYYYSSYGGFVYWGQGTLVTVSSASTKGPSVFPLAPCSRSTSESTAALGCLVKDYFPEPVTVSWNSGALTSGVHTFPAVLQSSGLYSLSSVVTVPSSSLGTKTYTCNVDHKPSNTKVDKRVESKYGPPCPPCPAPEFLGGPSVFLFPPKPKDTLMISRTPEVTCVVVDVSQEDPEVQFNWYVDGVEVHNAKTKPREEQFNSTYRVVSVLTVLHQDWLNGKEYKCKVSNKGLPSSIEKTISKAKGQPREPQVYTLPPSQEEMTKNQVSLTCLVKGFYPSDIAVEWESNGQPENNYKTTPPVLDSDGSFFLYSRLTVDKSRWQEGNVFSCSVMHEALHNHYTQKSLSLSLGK
light: DIQMTQSPSSVSASVGDRVTITCLASQTIGAWLAWYQQKPGKSPKLLIYAATRLADGVPSRFSGSGSGTDFTLTISSLQPEDFATYYCQQLDSSPYTFGQGTKVEIKRTVAAPSVFIFPPSDEQLKSGTASVVCLLNNFYPREAKVQWKVDNALQSGNSQESVTEQDSKDSTYSLSSTLTLSKADYEKHKVYACEVTHQGLSSPVTKSFNRGEC
notes: also called 874F7-Hul; humanized antibody 874F7-Hu1

- IC50 (Human IL-33-his): 0.9 nM
B2: 874F7 (antibody, V domains shown)
VH: QVQLKESGPGLVAPSHSLSITCNVSGFSLSKYGVHWIRQIPGRGLDWLGVLRAGGSTGYNSALMSRLSISKDSSKSQVFLKMNDLRTDDTAVYFCVRDHYYYSSYGGFVYWGQGTLVTVSA
VL: DIQMTQSPASQSASLGESVTITCLASQTIGAWLAWYRQQPGKSPQLLIYAATRLADGVPSRFSGSGSGTEFSFKINNLQAEDFVSYYCQQLDSSPYTFGGGTRLEM
notes: Murine hybridoma antibody purified on Protein G; also called murine antibody 874F7
